Our source for the protein stability index values is the supplement of paper PMC10724198.

± gives the standard deviation of the averaged measurements.

The data set has as its system Saccharomyces cerevisiae. Nature of the data set: protein stability index of tFT-peptide fusion (C-terminal peptide) (PSI (0-1 scale)); higher = more stable (slower turnover). The note with it: temperature: 30 C. The procedure: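 MPS profiling in S. cerevisiae of the yeast C-terminome library: the last 12 aa of each annotated ORF are fused to the C-terminus of a sfGFP-mCherry timer, after a GGGS linker. Cells are FACS-sorted into 8 mCherry/sfGFP bins and deep-sequenced. PSI runs from 0 (unstable) to 1 (stable); wild type and das1Δ backgrounds, two technical replicates each.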

The mark [1] stands for this setting: genetic background: das1 deletion.

Take TIITKYEMLVRT [YOL134C C-terminal 12 aa]: the protein stability index runs as follows: under setting [1], 0.52 ± 0.015; (genetic background: wild type) 0.5399 ± 0.0028.

With TKKSSSHHRTGK [DIG1 C-terminal 12 aa], the protein stability index runs as follows: under setting [1], 0.697 ± 0.014; (genetic background: wild type) 0.688 ± 0.016.

In the case of TLEDEALQRNSK [JNM1 C-terminal 12 aa], the protein stability index was 0.722 ± 0.0093 under setting [1] and 0.686 ± 0.017 (genetic background: wild type).

As to TLNVSNISHYSL [GAL80 C-terminal 12 aa], the protein stability index is, setting by setting: under setting [1], 0.7033 ± 0.0016; (genetic background: wild type) 0.704 ± 0.0075.

Turning to TLQSEINISVKH [ENA5 C-terminal 12 aa], the protein stability index by setting is: under setting [1], 0.671 ± 0.0081; (genetic background: wild type) 0.6909 ± 0.0042.

Take TLTDLRDELRGL [NUP120 C-terminal 12 aa]: the protein stability index is, setting by setting: under setting [1], 0.678 ± 0.018; (genetic background: wild type) 0.721 ± 0.024.

In the case of TLWNDNTSYPFL [PDR3 C-terminal 12 aa], the protein stability index is, setting by setting: under setting [1], 0.756 ± 0.015; (genetic background: wild type) 0.7571 ± 0.0029.

TNDSFNIVALTP [PRP19 C-terminal 12 aa]: the protein stability index is 0.68811 ± 0.00023 under setting [1] and 0.654 ± 0.017 (genetic background: wild type).

For the sequence TPENNHLKWLIK [UGX2 C-terminal 12 aa], the protein stability index by setting is: under setting [1], 0.716 ± 0.024; (genetic background: wild type) 0.685 ± 0.035.

Regarding TPKPVDTDDEED [NEW1 C-terminal 12 aa], the protein stability index runs as follows: under setting [1], 0.685 ± 0.023; (genetic background: wild type) 0.707 ± 0.035.

TPLGQTLLDSRR [DAL1 C-terminal 12 aa] came in with a protein stability index under setting [1] of 0.6757 ± 0.0015 and a protein stability index (genetic background: wild type) of 0.67 ± 0.011.

Take TPQEILQRFQKQ [EAF1 C-terminal 12 aa]: the protein stability index worked out at 0.6812 ± 0.0053 under setting [1] and 0.732 ± 0.029 (genetic background: wild type).

Turning to TQSTVIATTSSV [NDL1 C-terminal 12 aa], the protein stability index by setting is: under setting [1], 0.6904 ± 0.0063; (genetic background: wild type) 0.694 ± 0.027.

In turn, TRDAPRERSPTR [NPL3 C-terminal 12 aa] gave a protein stability index under setting [1] of 0.716 ± 0.016 and a protein stability index (genetic background: wild type) of 0.65 ± 0.018.

As to TRFFDSKYFGCD [URK1 C-terminal 12 aa], the protein stability index reads like this: under setting [1], 0.701 ± 0.0078; (genetic background: wild type) 0.73 ± 0.072.

Regarding TRSAWDRAQRRL [LCP5 C-terminal 12 aa], the protein stability index runs as follows: under setting [1], 0.697 ± 0.015; (genetic background: wild type) 0.674 ± 0.013.

The sequence TSAGSNIFSTGQ [BBP1 C-terminal 12 aa] displayed a protein stability index under setting [1] of 0.699 ± 0.011 and a protein stability index (genetic background: wild type) of 0.752 ± 0.043.

As for “TSASSNLDDSFS [YPR002C-A C-terminal 12 aa]”, the protein stability index runs as follows: under setting [1], 0.69 ± 0.019; (genetic background: wild type) 0.6996 ± 0.002.

Turning to “TSGFCSLETSAE [YER023C-A C-terminal 12 aa]”, the protein stability index reads like this: under setting [1], 0.697 ± 0.0079; (genetic background: wild type) 0.735 ± 0.057.

For the sequence “TSGGSIVLKGSS [YGR068W-A C-terminal 12 aa]”, the protein stability index is 0.701 ± 0.026 under setting [1] and 0.6688 ± 0.0037 (genetic background: wild type).

As to TSNDLPAECVIS [EGH1 C-terminal 12 aa], the protein stability index under setting [1] was found to be 0.72 ± 0.0097 and the protein stability index (genetic background: wild type) stood at 0.68843 ± 0.00034.

TSNNIFGSDQKY [MNN14 C-terminal 12 aa] gave a protein stability index under setting [1] of 0.694 ± 0.016 and a protein stability index (genetic background: wild type) of 0.741 ± 0.037.

Turning to TSSTPKSPSSGS [SMY1 C-terminal 12 aa], the protein stability index by setting is: under setting [1], 0.691 ± 0.018; (genetic background: wild type) 0.67 ± 0.014.

Take “TSTLAVIPYPAF [YLR466C-B C-terminal 12 aa]”: the protein stability index came out at 0.7177 ± 0.0022 under setting [1] and 0.755 ± 0.045 (genetic background: wild type).

In the case of TTLCILFLFFTW [GOS1 C-terminal 12 aa], the protein stability index reads like this: under setting [1], 0.386 ± 0.0071; (genetic background: wild type) 0.401 ± 0.014.

In the case of TTVPIVSKKRQK [POP3 C-terminal 12 aa], the protein stability index is, setting by setting: under setting [1], 0.685 ± 0.033; (genetic background: wild type) 0.699 ± 0.01.

For TVNLIKSQLVRG [COQ9 C-terminal 12 aa], the protein stability index reads like this: under setting [1], 0.6064 ± 0.0011; (genetic background: wild type) 0.635 ± 0.047.

TVRALNPFMKRV [SSD1 C-terminal 12 aa]: the protein stability index runs as follows: under setting [1], 0.689 ± 0.046; (genetic background: wild type) 0.656 ± 0.039.

Consider TYCEKYHVPSIQ [YAE1 C-terminal 12 aa], for which the protein stability index is, setting by setting: under setting [1], 0.6915 ± 0.0042; (genetic background: wild type) 0.677 ± 0.04.

TYFSKQFLKKEL [LTP1 C-terminal 12 aa]: the protein stability index was 0.746 ± 0.017 under setting [1] and 0.742 ± 0.009 (genetic background: wild type).

Take TYRLGEWSKISV [POP1 C-terminal 12 aa]: the protein stability index was 0.694 ± 0.011 under setting [1] and 0.6913 ± 0.0047 (genetic background: wild type).

With VAAKIAALAGQQ [RPL5 C-terminal 12 aa], the protein stability index is, setting by setting: under setting [1], 0.708 ± 0.026; (genetic background: wild type) 0.717 ± 0.028.

Consider VAQNPVLAAVIA [KAP123 C-terminal 12 aa], for which the protein stability index reads like this: under setting [1], 0.455 ± 0.013; (genetic background: wild type) 0.466 ± 0.015.

Turning to VARLKDESENVW [COX16 C-terminal 12 aa], the protein stability index was found to be 0.689 ± 0.018 under setting [1] and 0.732 ± 0.041 (genetic background: wild type).

Regarding VAVASASSSASS [VPH1 C-terminal 12 aa], the protein stability index is, setting by setting: under setting [1], 0.683 ± 0.019; (genetic background: wild type) 0.682 ± 0.032.

VDDIVSGVRKQE [CCT3 C-terminal 12 aa]: the protein stability index reads like this: under setting [1], 0.691 ± 0.028; (genetic background: wild type) 0.677 ± 0.011.

On to VDDSDGDETMQI [TDA1 C-terminal 12 aa], for which the protein stability index by setting is: under setting [1], 0.70725 ± 0.00053; (genetic background: wild type) 0.7369 ± 0.0011.

In the case of VEDQSIEVKKEK [YPC1 C-terminal 12 aa], the protein stability index runs as follows: under setting [1], 0.684 ± 0.035; (genetic background: wild type) 0.7136 ± 0.007.

As for VEFKYPEEIFHG [TPP1 C-terminal 12 aa], the protein stability index was determined as 0.712 ± 0.012 under setting [1] and 0.6782 ± 0.0027 (genetic background: wild type).

With VEGGGVQYTIVS [YDL023C C-terminal 12 aa], the protein stability index under setting [1] amounted to 0.679 ± 0.0039 and the protein stability index (genetic background: wild type) is 0.669 ± 0.0067.

Regarding VEVEYLLRRLEE [ARO7 C-terminal 12 aa], the protein stability index reads like this: under setting [1], 0.691 ± 0.013; (genetic background: wild type) 0.6589 ± 0.0044.

For VFKMIMFIASNE [STU1 C-terminal 12 aa], the protein stability index was 0.581 ± 0.0076 under setting [1] and 0.5559 ± 0.0028 (genetic background: wild type).

For “VFLIISQHSLHS [YBL113W-A C-terminal 12 aa]”, the protein stability index under setting [1] is 0.6652 ± 0.0044 and the protein stability index (genetic background: wild type) came to 0.646 ± 0.029.

In the case of VFTRLYSTLWSY [YDR149C C-terminal 12 aa], the protein stability index stood at 0.6867 ± 0.0054 under setting [1] and 0.145 ± 0.0086 (genetic background: wild type).

Turning to VIKCFTSSDMTS [NAG1 C-terminal 12 aa], the protein stability index is 0.701 ± 0.026 under setting [1] and 0.683 ± 0.053 (genetic background: wild type).

As to VKDFYKRLETLK [RRM3 C-terminal 12 aa], the protein stability index reads like this: under setting [1], 0.6914 ± 0.0038; (genetic background: wild type) 0.7042 ± 0.0011.

Take VKNVLSKVVPPV [MTC2 C-terminal 12 aa]: the protein stability index amounted to 0.688 ± 0.0078 under setting [1] and 0.669 ± 0.04 (genetic background: wild type).

In turn, VKPSQDNVDSKD [OPI1 C-terminal 12 aa] showed a protein stability index under setting [1] of 0.687 ± 0.0096 and a protein stability index (genetic background: wild type) of 0.668 ± 0.022.

Sequence VKQLEVSSGIKQ [HEM1 C-terminal 12 aa] yielded a protein stability index under setting [1] of 0.6929 ± 0.0017 and a protein stability index (genetic background: wild type) of 0.675 ± 0.043.

Take VLAILFYPAWVE [YGR160W C-terminal 12 aa]: the protein stability index by setting is: under setting [1], 0.5 ± 0.0098; (genetic background: wild type) 0.529 ± 0.0053.

In the case of VLDVGSVLDVTI [PSR2 C-terminal 12 aa], the protein stability index by setting is: under setting [1], 0.718 ± 0.035; (genetic background: wild type) 0.6934 ± 0.00093.

VLHSIISICRIF [VPS65 C-terminal 12 aa]: the protein stability index is 0.756 ± 0.014 under setting [1] and 0.641 ± 0.036 (genetic background: wild type).

As for VMAWTFGYALIG [EMC6 C-terminal 12 aa], the protein stability index by setting is: under setting [1], 0.654 ± 0.015; (genetic background: wild type) 0.452 ± 0.014.

In the case of VMKAKRKFNPYT [RRP7 C-terminal 12 aa], the protein stability index by setting is: under setting [1], 0.6859 ± 0.0013; (genetic background: wild type) 0.6974 ± 0.0025.

For the sequence VMPIFIYFYTVV [CDC1 C-terminal 12 aa], the protein stability index came to 0.38 ± 0.044 under setting [1] and 0.343 ± 0.0079 (genetic background: wild type).

VNADDEIENNVD [AMN1 C-terminal 12 aa] came in with a protein stability index under setting [1] of 0.674 ± 0.0091 and a protein stability index (genetic background: wild type) of 0.669 ± 0.022.

For VNGGSKKRKAND [RMI1 C-terminal 12 aa], the protein stability index is, setting by setting: under setting [1], 0.664 ± 0.016; (genetic background: wild type) 0.663 ± 0.0079.

VPEFLLHRRNSI [NTE1 C-terminal 12 aa]: the protein stability index (genetic background: wild type) was 0.75 ± 0.05.

In turn, VPEPGDQPLVQA [YPR078C C-terminal 12 aa] displayed a protein stability index under setting [1] of 0.725 ± 0.022 and a protein stability index (genetic background: wild type) of 0.678 ± 0.023.

In the case of VPLKEELFPSSS [COX6 C-terminal 12 aa], the protein stability index runs as follows: under setting [1], 0.718 ± 0.025; (genetic background: wild type) 0.674 ± 0.0019.

In the case of VPVILREYKGSA [GCD2 C-terminal 12 aa], the protein stability index was 0.725 ± 0.017 under setting [1] and 0.665 ± 0.0075 (genetic background: wild type).

Consider VQRSASVVERQE [DUS4 C-terminal 12 aa], for which the protein stability index reads like this: under setting [1], 0.6971 ± 0.0051; (genetic background: wild type) 0.694 ± 0.0013.

Consider “VQRVILITHLNV [YOL083C-A C-terminal 12 aa]”, for which the protein stability index is, setting by setting: under setting [1], 0.6054 ± 0.0053; (genetic background: wild type) 0.616 ± 0.0084.

VREYNKYCEAIL [VPS13 C-terminal 12 aa] yielded a protein stability index under setting [1] of 0.687 ± 0.01 and a protein stability index (genetic background: wild type) of 0.667 ± 0.033.

As for VRQMNRLATPLI [PUS2 C-terminal 12 aa], the protein stability index by setting is: under setting [1], 0.7095 ± 0.0057; (genetic background: wild type) 0.7391 ± 0.0066.

Turning to VTGKEKFEKLRD [SPG3 C-terminal 12 aa], the protein stability index runs as follows: under setting [1], 0.724 ± 0.0027; (genetic background: wild type) 0.685 ± 0.024.

Take VTGPHDRWYVVG [ATG14 C-terminal 12 aa]: the protein stability index reads like this: under setting [1], 0.76 ± 0.019; (genetic background: wild type) 0.659 ± 0.024.

Regarding VTLLQMKKKLEG [PET20 C-terminal 12 aa], the protein stability index by setting is: under setting [1], 0.6926 ± 0.0053; (genetic background: wild type) 0.761 ± 0.042.
